Earlier results, collected in US20020192216A1, “Therapeutic use” (priority 1999, published 2002).

Tested on: all three mammalian Hedgehog proteins
Details: compared with Ptc

B1: HIP: membrane glycoprotein that binds Hedgehog proteins and attenuates Hedgehog signalling; GenBank AF116865 (protein, UniProt Q7TN16 18-700, looked up)
Hedgehog-interacting protein: FFEGDAKFGERNEGSGARRRRCLNGNPPKRLKRRDRRVMSQLELLSGGEILCGGFYPRVSCCLQSDSPGLGRLENKIFSATNNSECSRLLEEIQCAPCSPHSQSLFYTPERDVLDGDLALPLLCKDYCKEFFYTCRGHIPGLLQTTADEFCFYYARKDAGLCFPDFPRKQVRGPASNYLGQMEDYEKVGGISRKHKHNCLCVQEVMSGLRQPVSAVHSGDGSHRLFILEKEGYVKILTPEGELFKEPYLDIHKLVQSGIKGGDERGLLSLAFHPNYKKNGKLYVSYTTNQERWAIGPHDHILRVVEYTVSRKNPHQVDVRTARVFLEVAELHRKHLGGQLLFGPDGFLYIILGDGMITLDDMEEMDGLSDFTGSVLRLDVDTDMCNVPYSIPRSNPHFNSTNQPPEVFAHGLHDPGRCAVDRHPTDININLTILCSDSNGKNRSSARILQIIKGRDYESEPSLLEFKPFSNGPLVGGFVYRGCQSERLYGSYVFGDRNGNFLTLQQSPVTKQWQEKPLCLGASSSCRGYFSGHILGFGEDELGEVYILSSSKSMTQTHNGKLYKIVDPKRPLMPEECRVTVQPAQPLTSDCSRLCRNGYYTPTGKCCCSPGWEGDFCRIAKCEPACRHGGVCVRPNKCLCKKGYLGPQCEQVDRNVRRVTRAGILDQIIDMTSYLLDLTSYIV
affinity for Hedgehog proteins: comparable to that of Ptc
